In paper PMC9482650, “Quantitative fragmentomics allow affinity mapping of interactomes” (Nature Communications, 2022):

T1: PARD3B_1, Q8TEW8
T1 sequence (Q8TEW8 196-299, limits assumed, looked up): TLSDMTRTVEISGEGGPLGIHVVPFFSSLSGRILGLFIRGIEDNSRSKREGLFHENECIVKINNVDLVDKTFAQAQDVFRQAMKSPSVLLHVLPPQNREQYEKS

T2: DLG3_1, Q92796
T2 sequence (Q92796 125-227, limits assumed, looked up): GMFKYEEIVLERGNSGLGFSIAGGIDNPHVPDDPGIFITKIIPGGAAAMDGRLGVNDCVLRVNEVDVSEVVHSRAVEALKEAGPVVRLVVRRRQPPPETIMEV

T3: SIPA1L2, Q9P2F8
T3 sequence (Q9P2F8 945-1036, limits assumed, looked up): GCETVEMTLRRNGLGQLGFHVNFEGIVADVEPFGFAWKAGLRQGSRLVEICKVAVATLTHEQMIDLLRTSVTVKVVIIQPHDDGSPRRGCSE

T4: LNX2_2, Q8N448
T4 sequence (Q8N448 334-432, limits assumed, looked up): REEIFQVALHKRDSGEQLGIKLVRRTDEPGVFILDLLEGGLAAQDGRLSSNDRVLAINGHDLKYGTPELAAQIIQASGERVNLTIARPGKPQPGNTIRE

T5: DFNB31_3, Q9P202
T5 sequence (Q9P202 811-907, limits assumed, looked up): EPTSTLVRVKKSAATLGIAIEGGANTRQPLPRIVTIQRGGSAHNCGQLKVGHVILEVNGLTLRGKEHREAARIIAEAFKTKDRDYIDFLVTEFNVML

T6: GRIP1_7, Q9Y3R0
T6 sequence (Q9Y3R0 999-1096, limits assumed, looked up): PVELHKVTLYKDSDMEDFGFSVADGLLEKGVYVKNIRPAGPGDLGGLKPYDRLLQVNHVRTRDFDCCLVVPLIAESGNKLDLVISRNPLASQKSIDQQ

T7: GRIP1_4, Q9Y3R0
T7 sequence (Q9Y3R0 467-571, limits assumed, looked up): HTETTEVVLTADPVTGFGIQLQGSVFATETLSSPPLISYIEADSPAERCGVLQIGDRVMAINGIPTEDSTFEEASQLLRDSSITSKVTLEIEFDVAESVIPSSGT

T8: LRRC7, Q96NW7
T8 sequence (Q96NW7 1440-1537, limits assumed, looked up): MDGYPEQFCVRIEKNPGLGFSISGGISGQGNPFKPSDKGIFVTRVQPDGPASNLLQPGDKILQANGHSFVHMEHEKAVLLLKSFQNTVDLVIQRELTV

T9: MPDZ_10, O75970
T9 sequence (O75970 1624-1722, limits assumed, looked up): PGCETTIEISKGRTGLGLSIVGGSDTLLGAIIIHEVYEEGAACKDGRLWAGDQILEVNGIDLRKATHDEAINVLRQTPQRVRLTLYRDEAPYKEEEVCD

T10: PCLO, Q9Y6V0
T10 sequence (Q9Y6V0 4491-4600, limits assumed, looked up): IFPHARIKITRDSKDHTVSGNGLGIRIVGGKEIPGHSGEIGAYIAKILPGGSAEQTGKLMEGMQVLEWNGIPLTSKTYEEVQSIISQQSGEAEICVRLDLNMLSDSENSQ

T11: TIAM2, Q8IVF5
T11 sequence (Q8IVF5 885-986, limits assumed, looked up): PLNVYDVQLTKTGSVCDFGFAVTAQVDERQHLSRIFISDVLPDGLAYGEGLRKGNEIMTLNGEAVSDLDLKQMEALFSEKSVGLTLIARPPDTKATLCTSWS


Biological target: SCRIB_2, Q14160
Sequence (Q14160 857-960): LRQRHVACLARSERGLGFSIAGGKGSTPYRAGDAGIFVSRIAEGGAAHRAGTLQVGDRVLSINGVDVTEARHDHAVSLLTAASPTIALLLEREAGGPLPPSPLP
Test: holdup assay
Parameters: key: below the threshold = too weak to quantify, mostly under pKd 3.1 to 4
Details: plain residues with an end cap or a label only (N-terminal biotin on a linker: ado-ado)

Binder	pKd
TGPWKNETTV [ADGRA1, Q86SQ6]	4.25
VRPGVKESLV [SCN4A, P35499]	4.18

Biological target: DLG2_2, Q15700
Sequence (Q15700 189-283): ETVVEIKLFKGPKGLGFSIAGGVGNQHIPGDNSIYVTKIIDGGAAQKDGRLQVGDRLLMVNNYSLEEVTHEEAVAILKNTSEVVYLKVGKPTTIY
Test: holdup assay
Parameters: key: below the threshold = too weak to quantify, mostly under pKd 3.1 to 4
Details: plain residues with an end cap or a label only (N-terminal biotin on a linker: ado-ado)

Binder	pKd
TGPWKNETTV [ADGRA1, Q86SQ6]	5.1
VRPGVKESLV [SCN4A, P35499]	5.23

Biological target: AHNAK1, Q09666
Sequence (Q09666 4-100): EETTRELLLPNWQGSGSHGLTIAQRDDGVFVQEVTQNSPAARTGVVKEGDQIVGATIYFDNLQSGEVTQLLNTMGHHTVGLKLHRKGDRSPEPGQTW
Test: holdup assay
Parameters: key: below the threshold = too weak to quantify, mostly under pKd 3.1 to 4
Details: plain residues with an end cap or a label only (N-terminal biotin on a linker: ado-ado)

Binder	pKd
TGPWKNETTV [ADGRA1, Q86SQ6]	below the threshold
VRPGVKESLV [SCN4A, P35499]	below the threshold

Biological target: Inadl_1, Q8NI35
Sequence (Q8NI35 113-229): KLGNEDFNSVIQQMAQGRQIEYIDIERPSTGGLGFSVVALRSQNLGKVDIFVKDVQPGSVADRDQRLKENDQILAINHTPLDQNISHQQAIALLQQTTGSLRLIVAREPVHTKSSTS
Test: holdup assay
Parameters: key: below the threshold = too weak to quantify, mostly under pKd 3.1 to 4
Details: plain residues with an end cap or a label only (N-terminal biotin on a linker: ado-ado)

Binder	pKd
TGPWKNETTV [ADGRA1, Q86SQ6]	below the threshold
VRPGVKESLV [SCN4A, P35499]	below the threshold

Biological target: NOS1, P29475
Sequence (P29475 9-101): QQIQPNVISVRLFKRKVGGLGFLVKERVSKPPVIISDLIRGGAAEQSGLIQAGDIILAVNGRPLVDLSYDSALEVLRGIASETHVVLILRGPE
Test: holdup assay
Parameters: key: below the threshold = too weak to quantify, mostly under pKd 3.1 to 4
Details: plain residues with an end cap or a label only (N-terminal biotin on a linker: ado-ado)

Binder	pKd
TGPWKNETTV [ADGRA1, Q86SQ6]	below the threshold
VRPGVKESLV [SCN4A, P35499]	3.97

Biological target: T1, PARD3B_1, Q8TEW8
Test: holdup assay
Parameters: key: below the threshold = too weak to quantify, mostly under pKd 3.1 to 4
Details: plain residues with an end cap or a label only (N-terminal biotin on a linker: ado-ado)

Binder	pKd
TGPWKNETTV [ADGRA1, Q86SQ6]	below the threshold
VRPGVKESLV [SCN4A, P35499]	below the threshold

Biological target: T2, DLG3_1, Q92796
Test: holdup assay
Parameters: key: below the threshold = too weak to quantify, mostly under pKd 3.1 to 4
Details: plain residues with an end cap or a label only (N-terminal biotin on a linker: ado-ado)

Binder	pKd
TGPWKNETTV [ADGRA1, Q86SQ6]	4.47
VRPGVKESLV [SCN4A, P35499]	4.5

Biological target: T3, SIPA1L2, Q9P2F8
Test: holdup assay
Parameters: key: below the threshold = too weak to quantify, mostly under pKd 3.1 to 4
Details: plain residues with an end cap or a label only (N-terminal biotin on a linker: ado-ado)

Binder	pKd
TGPWKNETTV [ADGRA1, Q86SQ6]	below the threshold
VRPGVKESLV [SCN4A, P35499]	below the threshold

Biological target: PDLIM1, O00151
Sequence (O00151 1-87): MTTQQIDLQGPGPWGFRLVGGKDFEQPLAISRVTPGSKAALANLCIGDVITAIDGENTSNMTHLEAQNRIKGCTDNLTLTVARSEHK
Test: holdup assay
Parameters: key: below the threshold = too weak to quantify, mostly under pKd 3.1 to 4
Details: plain residues with an end cap or a label only (N-terminal biotin on a linker: ado-ado)

Binder	pKd
TGPWKNETTV [ADGRA1, Q86SQ6]	below the threshold
VRPGVKESLV [SCN4A, P35499]	below the threshold

Biological target: NHERF4_2, Q86UT5
Sequence (Q86UT5 220-308): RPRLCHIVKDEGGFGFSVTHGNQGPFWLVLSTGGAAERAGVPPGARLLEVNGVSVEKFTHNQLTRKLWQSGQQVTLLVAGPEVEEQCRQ
Test: holdup assay
Parameters: key: below the threshold = too weak to quantify, mostly under pKd 3.1 to 4
Details: plain residues with an end cap or a label only (N-terminal biotin on a linker: ado-ado)

Binder	pKd
TGPWKNETTV [ADGRA1, Q86SQ6]	below the threshold
VRPGVKESLV [SCN4A, P35499]	below the threshold

Biological target: T4, LNX2_2, Q8N448
Test: holdup assay
Parameters: key: below the threshold = too weak to quantify, mostly under pKd 3.1 to 4
Details: plain residues with an end cap or a label only (N-terminal biotin on a linker: ado-ado)

Binder	pKd
TGPWKNETTV [ADGRA1, Q86SQ6]	4.93
VRPGVKESLV [SCN4A, P35499]	3.91

Biological target: DLG1_1, Q12959
Test: holdup assay
Parameters: key: below the threshold = too weak to quantify, mostly under pKd 3.1 to 4
Details: plain residues with an end cap or a label only (N-terminal biotin on a linker: ado-ado)

Binder	pKd
TGPWKNETTV [ADGRA1, Q86SQ6]	4.82
VRPGVKESLV [SCN4A, P35499]	4.71

Biological target: T5, DFNB31_3, Q9P202
Test: holdup assay
Parameters: key: below the threshold = too weak to quantify, mostly under pKd 3.1 to 4
Details: plain residues with an end cap or a label only (N-terminal biotin on a linker: ado-ado)

Binder	pKd
TGPWKNETTV [ADGRA1, Q86SQ6]	below the threshold
VRPGVKESLV [SCN4A, P35499]	below the threshold

Biological target: MAGI2_3, Q86UL8
Sequence (Q86UL8 600-682): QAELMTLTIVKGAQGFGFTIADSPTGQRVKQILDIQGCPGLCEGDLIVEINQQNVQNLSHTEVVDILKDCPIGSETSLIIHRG
Test: holdup assay
Parameters: key: below the threshold = too weak to quantify, mostly under pKd 3.1 to 4
Details: plain residues with an end cap or a label only (N-terminal biotin on a linker: ado-ado)

Binder	pKd
TGPWKNETTV [ADGRA1, Q86SQ6]	3.94
VRPGVKESLV [SCN4A, P35499]	4.51

Biological target: SCRIB_3, Q14160
Sequence (Q14160 999-1103): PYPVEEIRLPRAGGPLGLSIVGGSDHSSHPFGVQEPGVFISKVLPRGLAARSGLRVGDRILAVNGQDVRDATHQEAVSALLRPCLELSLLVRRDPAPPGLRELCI
Test: holdup assay
Parameters: key: below the threshold = too weak to quantify, mostly under pKd 3.1 to 4
Details: plain residues with an end cap or a label only (N-terminal biotin on a linker: ado-ado)

Binder	pKd
TGPWKNETTV [ADGRA1, Q86SQ6]	4.69
VRPGVKESLV [SCN4A, P35499]	4.34

Biological target: T6, GRIP1_7, Q9Y3R0
Test: holdup assay
Parameters: key: below the threshold = too weak to quantify, mostly under pKd 3.1 to 4
Details: plain residues with an end cap or a label only (N-terminal biotin on a linker: ado-ado)

Binder	pKd
TGPWKNETTV [ADGRA1, Q86SQ6]	below the threshold
VRPGVKESLV [SCN4A, P35499]	below the threshold

Biological target: T7, GRIP1_4, Q9Y3R0
Test: holdup assay
Parameters: key: below the threshold = too weak to quantify, mostly under pKd 3.1 to 4
Details: plain residues with an end cap or a label only (N-terminal biotin on a linker: ado-ado)

Binder	pKd
TGPWKNETTV [ADGRA1, Q86SQ6]	below the threshold
VRPGVKESLV [SCN4A, P35499]	below the threshold

Biological target: GRID2IP_1, A4D2P6
Sequence (A4D2P6 1-87): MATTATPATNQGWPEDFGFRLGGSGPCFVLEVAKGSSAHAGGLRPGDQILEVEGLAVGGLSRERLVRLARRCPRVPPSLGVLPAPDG
Test: holdup assay
Parameters: key: below the threshold = too weak to quantify, mostly under pKd 3.1 to 4
Details: plain residues with an end cap or a label only (N-terminal biotin on a linker: ado-ado)

Binder	pKd
TGPWKNETTV [ADGRA1, Q86SQ6]	below the threshold
VRPGVKESLV [SCN4A, P35499]	below the threshold

Biological target: T8, LRRC7, Q96NW7
Test: holdup assay
Parameters: key: below the threshold = too weak to quantify, mostly under pKd 3.1 to 4
Details: plain residues with an end cap or a label only (N-terminal biotin on a linker: ado-ado)

Binder	pKd
TGPWKNETTV [ADGRA1, Q86SQ6]	below the threshold
VRPGVKESLV [SCN4A, P35499]	4.02

Biological target: LAP2, Q96RT1
Sequence (Q96RT1 other isoform, or with tags, fused parts or gaps): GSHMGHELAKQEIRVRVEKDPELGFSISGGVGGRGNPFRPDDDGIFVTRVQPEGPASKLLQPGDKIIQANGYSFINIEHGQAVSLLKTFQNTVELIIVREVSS
Test: holdup assay
Parameters: key: below the threshold = too weak to quantify, mostly under pKd 3.1 to 4
Details: plain residues with an end cap or a label only (N-terminal biotin on a linker: ado-ado)

Binder	pKd
TGPWKNETTV [ADGRA1, Q86SQ6]	3.84
VRPGVKESLV [SCN4A, P35499]	3.99

Biological target: T9, MPDZ_10, O75970
Test: holdup assay
Parameters: key: below the threshold = too weak to quantify, mostly under pKd 3.1 to 4
Details: plain residues with an end cap or a label only (N-terminal biotin on a linker: ado-ado)

Binder	pKd
TGPWKNETTV [ADGRA1, Q86SQ6]	below the threshold
VRPGVKESLV [SCN4A, P35499]	below the threshold

Biological target: TJP1_2, Q07157
Sequence (Q07157 181-274): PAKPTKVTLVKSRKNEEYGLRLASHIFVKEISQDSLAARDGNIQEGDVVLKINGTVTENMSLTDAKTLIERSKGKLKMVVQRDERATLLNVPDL
Test: holdup assay
Parameters: key: below the threshold = too weak to quantify, mostly under pKd 3.1 to 4
Details: plain residues with an end cap or a label only (N-terminal biotin on a linker: ado-ado)

Binder	pKd
TGPWKNETTV [ADGRA1, Q86SQ6]	below the threshold
VRPGVKESLV [SCN4A, P35499]	below the threshold

Biological target: DLG4_2, P78352
Sequence (P78352 155-259): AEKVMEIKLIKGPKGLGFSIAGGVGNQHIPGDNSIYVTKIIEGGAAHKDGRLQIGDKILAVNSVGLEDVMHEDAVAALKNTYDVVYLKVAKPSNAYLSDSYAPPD
Test: holdup assay
Parameters: key: below the threshold = too weak to quantify, mostly under pKd 3.1 to 4
Details: plain residues with an end cap or a label only (N-terminal biotin on a linker: ado-ado)

Binder	pKd
TGPWKNETTV [ADGRA1, Q86SQ6]	5.08
VRPGVKESLV [SCN4A, P35499]	5.71

Biological target: T10, PCLO, Q9Y6V0
Test: holdup assay
Parameters: key: below the threshold = too weak to quantify, mostly under pKd 3.1 to 4
Details: plain residues with an end cap or a label only (N-terminal biotin on a linker: ado-ado)

Binder	pKd
TGPWKNETTV [ADGRA1, Q86SQ6]	below the threshold
VRPGVKESLV [SCN4A, P35499]	below the threshold

Biological target: T11, TIAM2, Q8IVF5
Test: holdup assay
Parameters: key: below the threshold = too weak to quantify, mostly under pKd 3.1 to 4
Details: plain residues with an end cap or a label only (N-terminal biotin on a linker: ado-ado)

Binder	pKd
TGPWKNETTV [ADGRA1, Q86SQ6]	below the threshold
VRPGVKESLV [SCN4A, P35499]	below the threshold

Biological target: HTRA1, Q92743
Sequence (Q92743 360-477): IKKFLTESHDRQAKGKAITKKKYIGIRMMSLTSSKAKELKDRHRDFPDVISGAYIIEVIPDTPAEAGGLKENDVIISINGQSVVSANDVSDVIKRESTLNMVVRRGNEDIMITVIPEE
Test: holdup assay
Parameters: key: below the threshold = too weak to quantify, mostly under pKd 3.1 to 4
Details: plain residues with an end cap or a label only (N-terminal biotin on a linker: ado-ado)

Binder	pKd
TGPWKNETTV [ADGRA1, Q86SQ6]	4.26
VRPGVKESLV [SCN4A, P35499]	3.89

Biological target: MAGI2_6, Q86UL8
Sequence (Q86UL8 1141-1229): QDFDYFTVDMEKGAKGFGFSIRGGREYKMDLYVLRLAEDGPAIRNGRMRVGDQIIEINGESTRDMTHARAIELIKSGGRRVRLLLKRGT
Test: holdup assay
Parameters: key: below the threshold = too weak to quantify, mostly under pKd 3.1 to 4
Details: plain residues with an end cap or a label only (N-terminal biotin on a linker: ado-ado)

Binder	pKd
TGPWKNETTV [ADGRA1, Q86SQ6]	3.71
VRPGVKESLV [SCN4A, P35499]	3.93
